From patent publication US20250171562A1 come the findings set out here.

B1: sdAb F6 (VHH)
VHH: DVQLQESGGGLVQAGGSLRLSCAASGLTFGSYDMGWYRQAPGKQRELVGRIRNDGITYYADSVKGRFTMSRDNAKNTVYLQMNSLKPEDTAVYYCAADGTGLGHYDYWGQGTQVTVS
B2: B1A1(G4S)4 (bispecific antibody)
chain: QVQLQESGGGLVQTGGSLRLSCAVHGRTFSNTGMGWFRQAPGNERQFVAIISPSGTSTYYADSVKGRFTISRDPAKNTVYLQMNSLKMDDTAVYYCAASYGSNWSTLRHQRRNEYDAWGQGTQVAVSGGGGSGGGGSGGGGSGGGGSEVQLLESGGGLVQPGGSLRLSCAASGFTFGNYDMAWVRQAPGKRPEWVSSIDTGGDITHYADSVKGRFTISRDNAKNTLYLQMNSLRPEDTAVYWCATDEEYALGPNEFDYYGQGTLVTVS
B3: sdAb B3 (VHH)
VHH: DVQLQESGGGLVQAGGSLRLSCAASGFIFRLAGMSWVRQAPGKGFEWVSGITMDGSTTNYADSVKGRFTISRDNSKNRLYLQMNSLKPEDTAVYYCARGAKGGYNDPRGQGTQVTVS
B4: A1B1(G4S)4 (bispecific antibody)
chain: EVQLLESGGGLVQPGGSLRLSCAASGFTFGNYDMAWVRQAPGKRPEWVSSIDTGGDITHYADSVKGRFTISRDNAKNTLYLQMNSLRPEDTAVYWCATDEEYALGPNEFDYYGQGTLVTVSGGGGSGGGGSGGGGSGGGGSQVQLQESGGGLVQTGGSLRLSCAVHGRTFSNTGMGWFRQAPGNERQFVAIISPSGTSTYYADSVKGRFTISRDPAKNTVYLQMNSLKMDDTAVYYCAASYGSNWSTLRHQRRNEYDAWGQGTQVAVS
B5: A1B3(G4S)4 (bispecific antibody)
chain: EVQLLESGGGLVQPGGSLRLSCAASGFTFGNYDMAWVRQAPGKRPEWVSSIDTGGDITHYADSVKGRFTISRDNAKNTLYLQMNSLRPEDTAVYWCATDEEYALGPNEFDYYGQGTLVTVSGGGGSGGGGSGGGGSGGGGSDVQLQESGGGLVQAGGSLRLSCAASGFIFRLAGMSWVRQAPGKGFEWVSGITMDGSTTNYADSVKGRFTISRDNSKNRLYLQMNSLKPEDTAVYYCARGAKGGYNDPRGQGTQVTVS
B6: A1A1(G4S)4 (VHH)
chain: EVQLLESGGGLVQPGGSLRLSCAASGFTFGNYDMAWVRQAPGKRPEWVSSIDTGGDITHYADSVKGRFTISRDNAKNTLYLQMNSLRPEDTAVYWCATDEEYALGPNEFDYYGQGTLVTVSGGGGSGGGGSGGGGSGGGGSEVQLLESGGGLVQPGGSLRLSCAASGFTFGNYDMAWVRQAPGKRPEWVSSIDTGGDITHYADSVKGRFTISRDNAKNTLYLQMNSLRPEDTAVYWCATDEEYALGPNEFDYYGQGTLVTVS
B7: sdAb F4 (VHH)
VHH: DVQLQESGGGLVQAGGSLRLSCAVSGLSFSSMGWFRQPPGKEREFVAAISLYSGSTYYADSVKGRFTISSDNAKSTVYLQMNSLKPEDAAVYFCAADRQRTWSTFYASRQATYNYWGQGTQVTVTS
B8: NIgG4B1A1(RS) (Fc fusion)
chain 1: QVQLQESGGGLVQTGGSLRLSCAVHGRTFSNTGMGWFRQAPGNERQFVAIISPSGTSTYYADSVKGRFTISRDPAKNTVYLQMNSLKMDDTAVYYCAASYGSNWSTLRHQRRNEYDAWGQGTQVAVSRSGPPCPPCPAPEFLGGPSVFLFPPKPKDTLMISRTPEVTCVVVDVSQEDPEVQFNWYVDGVEVHNAKTKPREEQFNSTYRVVSVLTVLHQDWLNGKEYKCKVSNKGLPSSIEKTISKAKGQPREPQVYTLPPCQEEMTKNQVSLWCLVKGFYPSDIAVEWESNGQPENNYKTTPPVLDSDGSFFLYSRLTVDKSRWQEGNVFSCSVMHEALHNHYTQKSLSLSLGK
chain 2: EVQLLESGGGLVQPGGSLRLSCAASGFTFGNYDMAWVRQAPGKRPEWVSSIDTGGDITHYADSVKGRFTISRDNAKNTLYLQMNSLRPEDTAVYWCATDEEYALGPNEFDYYGQGTLVTVSSRSGPPCPPCPAPEFLGGPSVFLFPPKPKDTLMISRTPEVTCVVVDVSQEDPEVQFNWYVDGVEVHNAKTKPREEQFNSTYRVVSVLTVLHQDWLNGKEYKCKVSNKGLPSSIEKTISKAKGQPREPQVCTLPPSQEEMTKNQVSLSCAVKGFYPSDIAVEWESNGQPENNYKTTPPVLDSDGSFFLVSRLTVDKSRWQEGNVFSCSVMHEALHNHYTQKSLSLSLGK
B9: B2A1(G4S)4 (bispecific antibody)
chain: QVQLVESGGGLVQAGGSLRLSCAVFGSTFSNNVADWYRQAPGKQRELVARISASGATREYGDSVKGRFTISRDDAKNTMYLQMNNLKPEDTAVYRCHKIEWEDLSRKDYWGQGTQVTVSGGGGSGGGGSGGGGSGGGGSEVQLLESGGGLVQPGGSLRLSCAASGFTFGNYDMAWVRQAPGKRPEWVSSIDTGGDITHYADSVKGRFTISRDNAKNTLYLQMNSLRPEDTAVYWCATDEEYALGPNEFDYYGQGTLVTVS
B10: sdAb D1 (VHH)
VHH: DVQLQESGGGLVQAGGSLRLSCAASGLTFSRCDMGWFRQAPGKEREFVARISANGASTHYADFVKGRFTISRDNAKNTVYLQMNYLKPEDTAVYICAAARVPVTWQLYDYWGQGTQVTVS
B11: sdAb F3 (VHH)
VHH: DVQLQESGGGLVQAGGSLKLSCAASRGSLSRWDVAWFRQAPGKERSFVTRISWSGTTSYYADAVKGRFAISRDNAKNTVYLQMNSLKPEDTAVYYCAVALYGNRGYYDVNAHSYWGQGTQVTVS
B12: A1B2(G4S)4 (bispecific antibody)
chain: EVQLLESGGGLVQPGGSLRLSCAASGFTFGNYDMAWVRQAPGKRPEWVSSIDTGGDITHYADSVKGRFTISRDNAKNTLYLQMNSLRPEDTAVYWCATDEEYALGPNEFDYYGQGTLVTVSGGGGSGGGGSGGGGSGGGGSQVQLVESGGGLVQAGGSLRLSCAVFGSTFSNNVADWYRQAPGKQRELVARISASGATREYGDSVKGRFTISRDDAKNTMYLQMNNLKPEDTAVYRCHKIEWEDLSRKDYWGQGTQVTVS
B13: sdAb D2 (VHH)
VHH: DVQLQESGGGLVEAGGSLRLSCVASGRTFSGWSMGWFRQAPGKEREFVAAISWVGSWIGGTVYSNSVKGRFTISRDNARTTVYLQMNSLKPEDTAVYFCAAANSETPRIFASEYDYWGQGTQVTVS
B14: sdAb E1 (VHH)
VHH: DVQLQESGGGLVQAGGSLRLSCLASGRTFTTTSGYNMGWFRQAPGKEREFVAGIKWVSGSNRAYAESVKGRFTISRDNAKNTVYLQMNSLKPEDTAVYYCAAATGQSYVPIREYEYVYWGQGTQVTVS
B15: A1D2(G4S)4 (bispecific antibody)
chain: EVQLLESGGGLVQPGGSLRLSCAASGFTFGNYDMAWVRQAPGKRPEWVSSIDTGGDITHYADSVKGRFTISRDNAKNTLYLQMNSLRPEDTAVYWCATDEEYALGPNEFDYYGQGTLVTVSGGGGSGGGGSGGGGSGGGGSDVQLQESGGGLVEAGGSLRLSCVASGRTFSGWSMGWFRQAPGKEREFVAAISWVGSWIGGTVYSNSVKGRFTISRDNARTTVYLQMNSLKPEDTAVYFCAAANSETPRIFASEYDYWGQGTQVTVS
B16: D2A1(G4S)4 (bispecific antibody)
chain: DVQLQESGGGLVEAGGSLRLSCVASGRTFSGWSMGWFRQAPGKEREFVAAISWVGSWIGGTVYSNSVKGRFTISRDNARTTVYLQMNSLKPEDTAVYFCAAANSETPRIFASEYDYWGQGTQVTVSGGGGSGGGGSGGGGSGGGGSEVQLLESGGGLVQPGGSLRLSCAASGFTFGNYDMAWVRQAPGKRPEWVSSIDTGGDITHYADSVKGRFTISRDNAKNTLYLQMNSLRPEDTAVYWCATDEEYALGPNEFDYYGQGTLVTVS
B17: B3A1(G4S)4 (bispecific antibody)
chain: DVQLQESGGGLVQAGGSLRLSCAASGFIFRLAGMSWVRQAPGKGFEWVSGITMDGSTTNYADSVKGRFTISRDNSKNRLYLQMNSLKPEDTAVYYCARGAKGGYNDPRGQGTQVTVSGGGGSGGGGSGGGGSGGGGSEVQLLESGGGLVQPGGSLRLSCAASGFTFGNYDMAWVRQAPGKRPEWVSSIDTGGDITHYADSVKGRFTISRDNAKNTLYLQMNSLRPEDTAVYWCATDEEYALGPNEFDYYGQGTLVTVS
B18: sdAb B1 (VHH)
VHH: QVQLQESGGGLVQTGGSLRLSCAVHGRTFSNTGMGWFRQAPGNERQFVAIISPSGTSTYYADSVKGRFTISRDPAKNTVYLQMNSLKMDDTAVYYCAASYGSNWSTLRHQRRNEYDAWGQGTQVAVS
B19: sdAb B2 (VHH)
VHH: QVQLVESGGGLVQAGGSLRLSCAVFGSTFSNNVADWYRQAPGKQRELVARISASGATREYGDSVKGRFTISRDDAKNTMYLQMNNLKPEDTAVYRCHKIEWEDLSRKDYWGQGTQVTVS

The target in the assay is mixture of three Der p 2 specific recombinant human IgE clones H10, H12, P4E (human) (UniProt P01854). Briefly: RBL-SX38 IgE displacement, FACS.
Chain of mixture of three Der p 2 specific recombinant human IgE clones H10, H12, P4E (human) (P01854 other isoform, or with tags, fused parts or gaps): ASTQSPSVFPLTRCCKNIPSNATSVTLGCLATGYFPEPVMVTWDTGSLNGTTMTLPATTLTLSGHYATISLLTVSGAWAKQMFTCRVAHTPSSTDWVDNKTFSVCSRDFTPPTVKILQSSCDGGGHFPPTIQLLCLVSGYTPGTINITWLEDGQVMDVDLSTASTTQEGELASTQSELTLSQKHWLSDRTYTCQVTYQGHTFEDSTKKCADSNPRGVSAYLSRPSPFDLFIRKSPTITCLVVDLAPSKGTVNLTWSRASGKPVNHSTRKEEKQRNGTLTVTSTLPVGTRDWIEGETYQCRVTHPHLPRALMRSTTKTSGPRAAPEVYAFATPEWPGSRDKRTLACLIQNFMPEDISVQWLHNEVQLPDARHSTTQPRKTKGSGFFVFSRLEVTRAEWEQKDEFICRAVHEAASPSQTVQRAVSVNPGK
As to B1, the Max effect/effect 1 µM came to 26%.
Take B2: the EC50 was determined as 1.4 nM and the Max effect/effect 1 µM was 100%.
Regarding B3, the Max effect/effect 1 µM was found to be 7%.
As for B4, the EC50 stood at 1.4 nM and the Max effect/effect 1 µM came out at 100%.
Consider B5, for which the EC50 turned out to be 0.4 nM and the Max effect/effect 1 µM was 99%.
In the case of B6, the EC50 was 402 nM and the Max effect/effect 1 µM was found to be 45%.
With B7, the Max effect/effect 1 µM was 17%.
With B8, the EC50 was 3 nM and the Max effect/effect 1 µM worked out at 99%.
With B9, the EC50 is 5.8 nM and the Max effect/effect 1 µM was found to be 92%.
On to B10, for which the Max effect/effect 1 µM was found to be 12%.
For the molecule B11, the Max effect/effect 1 µM is 5.6%.
As to B12, the EC50 was 0.8 nM and the Max effect/effect 1 µM came out at 100%.
Turning to B13, the Max effect/effect 1 µM is 22%.
With B14, the Max effect/effect 1 µM was found to be 0%.
As for B15, the 50% effective concentration (EC50) was 4.3 nM and the Max effect/effect 1 µM was found to be 98%.
Consider B16, for which the EC50 worked out at 78.7 nM and the Max effect/effect 1 µM came to 83%.
For B17, the EC50 was determined as 2 nM and the Max effect/effect 1 µM is 100%.
B18: the Max effect/effect 1 µM was 54%.
Consider B19, for which the Max effect/effect 1 µM was 23%.
